Experimental data published in patent US20230265151A1, “GIP/GLP1 CO-AGONIST COMPOUNDS” (priority 2020, published 2023).

T1: human GIP receptor (human) (UniProt P48546)
T1 sequence (looked up): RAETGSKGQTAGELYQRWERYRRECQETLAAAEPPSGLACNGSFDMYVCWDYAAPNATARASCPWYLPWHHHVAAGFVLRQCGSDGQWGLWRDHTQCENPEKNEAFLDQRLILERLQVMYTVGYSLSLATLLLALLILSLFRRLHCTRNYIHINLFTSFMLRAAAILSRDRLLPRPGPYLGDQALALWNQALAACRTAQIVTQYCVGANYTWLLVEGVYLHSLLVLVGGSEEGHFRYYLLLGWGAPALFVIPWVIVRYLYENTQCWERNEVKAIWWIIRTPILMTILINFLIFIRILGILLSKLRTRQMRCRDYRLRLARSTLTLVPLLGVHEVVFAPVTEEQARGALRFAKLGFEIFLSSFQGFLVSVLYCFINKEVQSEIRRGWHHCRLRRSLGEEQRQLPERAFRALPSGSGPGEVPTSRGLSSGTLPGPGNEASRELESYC

T2: human GIP receptor (human, UniProt P48546 22-466)
T2 construct: whole, on cells; also called hGIPR; human glucose-dependent insulinotropic polypeptide receptor
T2 sequence (looked up): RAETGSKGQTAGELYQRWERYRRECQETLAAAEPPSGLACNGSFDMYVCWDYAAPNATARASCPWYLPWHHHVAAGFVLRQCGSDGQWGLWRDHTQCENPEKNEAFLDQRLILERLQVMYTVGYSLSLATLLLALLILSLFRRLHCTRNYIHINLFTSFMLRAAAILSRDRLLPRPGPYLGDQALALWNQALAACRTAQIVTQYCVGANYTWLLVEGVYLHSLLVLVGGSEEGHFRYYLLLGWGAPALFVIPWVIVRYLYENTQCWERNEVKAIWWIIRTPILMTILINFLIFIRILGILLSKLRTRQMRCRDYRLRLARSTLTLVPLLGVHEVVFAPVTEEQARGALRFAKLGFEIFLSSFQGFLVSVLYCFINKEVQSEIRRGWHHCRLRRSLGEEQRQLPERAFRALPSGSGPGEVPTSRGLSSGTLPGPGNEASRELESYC

B1: Y-Aib-EGT-αMeF(2F)-TSD-4Pal-SI-αMeL-LD-Orn-K((2-[2-(2-Amino-ethoxy)-ethoxy]-acetyl)2-(γ-Glu)-CO-(CH2)10-CO2H)AQ-Aib-EFI-(D-Glu)-αMeY-LIEGGK((2-[2-(2-Amino-ethox … (peptide)
peptide: YXEGTXTSDXSIXLDXKAQXEFIXXLIEGGKSSGAPPPS
modifications: Aib2, αMeF(2F)6, 4Pal10, αMeL13, Orn16, K17(Z1), Aib20, D-Glu24, αMeY25, K31(Z1), C-term NH2; Z1=AEEA2-(γ-Glu)-CO-(CH2)10-CO2H
B2: Y-Aib-EGT-αMeF(2F)-TSD-4Pal-Aib-I-αMeL-LD-Orn-QAQ-Aib-EFIK((2-[2-(2-Amino-ethoxy)-ethoxy]-acetyl)2-(γ-Glu)-CO-(CH2)12-CO2H)-αMeY-LIK((2-[2-(2-Amino-ethoxy)-etho … (peptide)
peptide: YXEGTXTSDXXIXLDXQAQXEFIKXLIKGGPSSGAPPPS
modifications: Aib2, αMeF(2F)6, 4Pal10, Aib11, αMeL13, Orn16, Aib20, K24(Z1), αMeY25, K28(Z1), C-term NH2; Z1=AEEA2-(γ-Glu)-CO-(CH2)12-CO2H
B3: Y-Aib-EGT-αMeF(2F)-TSDY-Aib-I-αMeL-LD-Orn-QAQ-Aib-Orn-FIK((2-[2-(2-Amino-ethoxy)-ethoxy]-acetyl)3-(γ-Glu)-CO-(CH2)12-CO2H)-αMeY-LIK((2-[2-(2-Amino-ethoxy)-ethox … (peptide)
peptide: YXEGTXTSDYXIXLDXQAQXXFIKXLIKGGPSSGAPPPS
modifications: Aib2, αMeF(2F)6, Aib11, αMeL13, Orn16, Aib20, Orn21, K24(Z1), αMeY25, K28(Z1), C-term NH2; Z1=AEEA3-(γ-Glu)-CO-(CH2)12-CO2H
B4: Y-Aib-EGT-αMeF(2F)-TSD-4Pal-Aib-I-αMeL-LD-Orn-QAQ-Aib-Orn-FIK((2-[2-(2-Amino-ethoxy)-ethoxy]-acetyl)-(γ-Glu)-CO-(CH2)12-CO2H)-αMeY-LIK((2-[2-(2-Amino-ethoxy)-et … (peptide)
peptide: YXEGTXTSDXXIXLDXQAQXXFIKXLIKGGPSSGAPPPS
modifications: Aib2, αMeF(2F)6, 4Pal10, Aib11, αMeL13, Orn16, Aib20, Orn21, K24(Z1), αMeY25, K28(Z1), C-term NH2; Z1=AEEA-(γ-Glu)-CO-(CH2)12-CO2H
B5: Y-Aib-EGT-αMeF(2F)-TSD-4Pal-Aib-I-αMeL-LD-Orn-QAQ-Aib-EFIK((2-[2-(2-Amino-ethoxy)-ethoxy]-acetyl)3-(γ-Glu)-CO-(CH2)12-CO2H)-αMeY-LIK((2-[2-(2-Amino-ethoxy)-etho … (peptide)
peptide: YXEGTXTSDXXIXLDXQAQXEFIKXLIKGGPSSGAPPPS
modifications: Aib2, αMeF(2F)6, 4Pal10, Aib11, αMeL13, Orn16, Aib20, K24(Z1), αMeY25, K28(Z1), C-term NH2; Z1=AEEA3-(γ-Glu)-CO-(CH2)12-CO2H
B6: Y-Aib-EGT-αMeF(2F)-TSDK((2-[2-(2-Amino-ethoxy)-ethoxy]-acetyl)2-(γ-Glu)-CO-(CH2)12-CO2H)SI-αMeL-LD-Orn-K((2-[2-(2-Amino-ethoxy)-ethoxy]-acetyl)2-(γ-Glu)-CO-(CH2 … (peptide)
peptide: YXEGTXTSDKSIXLDXKAQXEFIXXLIEGGPSSGAPPPS
modifications: Aib2, αMeF(2F)6, K10(Z1), αMeL13, Orn16, K17(Z1), Aib20, D-Glu24, αMeY25, C-term NH2; Z1=AEEA2-(γ-Glu)-CO-(CH2)12-CO2H

Tests used:
[1] = target: T1, human GIP receptor (human); test: cell-based or functional assay
hGLP-1R = hGLP-1R (Homo sapiens, UniProt P43220); test: cell-based or functional assay
[2] = target: human glucagon receptor (human) (UniProt P47871); test: cell-based or functional assay
human GLP-1 receptor = target: T3, human GLP-1 receptor (human, UniProt P43220 24-463); test: SPA competition vs [125I]-GLP-1, hGLP-1R membranes
T3 construct: whole, on cells; also called hGLP-1R; human glucagon-like peptide-1 receptor
Method: The binding buffer contains 25 mM HEPES, pH 7.4, 2.5 mM CaCl₂, 1 mM MgCl₂, 0.1% (w/v) bacitracin, 0.003% (w/v) TWEEN®-20, and Roche Complete™ Protease Inhibitors without EDTA.
(§1) Data are analyzed using four-parameter (curve maximum, curve minimum, IC₅₀, Hill slope) nonlinear regression routines (Genedata Screener, version 12.0.4, Genedata AG, Basal, Switzerland). […] Values for Kᵢ are reported as the geometric mean, with error expressed as the standard error of the mean (SEM) and n is equal to the number of independent replicates (determined in assays performed on different days). Geometric Means are calculated as follows: […]

human GIP receptor = target: T2, human GIP receptor; test: SPA competition vs [125I]-GIP, hGIPR membranes
Method: The binding buffer contains 25 mM HEPES, pH 7.4, 2.5 mM CaCl₂, 1 mM MgCl₂, 0.1% (w/v) bacitracin, 0.003% (w/v) TWEEN®-20, and Roche Complete™ Protease Inhibitors without EDTA. […] Plates are sealed and mixed on a plate shaker (setting 6) for 1 minute and read with a PerkinElmer Trilux MicroBeta® scintillation counter after 2.5 to 12 hours of incubation/settling time at room temperature.
as §1

Molecule	cAMP EC50 (1.0% HSA) [1]	cAMP Emax (1.0% HSA) [1]	cAMP EC50 (1.0% HSA) (hGLP-1R)	cAMP Emax (1.0% HSA) (hGLP-1R)	cAMP EC50 (1.0% HSA) [2]	Ki (human GLP-1 receptor)	Ki (human GIP receptor)
Y-Aib-EGT-αMeF(2F)-TSD-4Pal-SI-αMeL-LD-Orn-K((2-[2-(2-Amino-ethoxy)-ethoxy]-acetyl)2-(γ-Glu)-CO-(CH2)14-CH3)AQ-Aib-EFI-(D-Glu)K((2-[2-(2-Amino-ethoxy)-ethoxy]-acetyl)2-(γ-Glu)-CO-(CH2)14-CH3)…-NH2 (peptide)	0.148 nM	98.2%	1.73 nM	102%	> 9950 nM	–	–
Y-Aib-EGT-αMeF(2F)-TSD-4Pal-SI-αMeL-LD-Orn-IAQ-Aib-EFIK((2-[2-(2-Amino-ethoxy)-ethoxy]-acetyl)2-(γ-Glu)-CO-(CH2)12-CO2H)-αMeY-…((2-[2-(2-Amino-ethoxy)-ethoxyl-acetyl)2-(γ-Glu)-CO-(CH2)12-CO2H)-NH2 (peptide)	3.55 nM	95.9%	40.1 nM	98.8%	> 9950 nM	–	–
Y-Aib-EGT-αMeF(2F)-TSD-4Pal-SI-αMeL-LD-Orn-K((2-[2-(2-Amino-ethoxy)-ethoxy]-acetyl)2-(εK)-CO-(CH2)12-CO2H)AQ-Aib-EFI-(D-Glu)-αMeY-LIEGGK((2-[2-(2-Amino-ethoxy)-ethoxy]-acetyl)2-(εK)-CO-(CH2)12-CO2H)-NH2 (peptide)	0.335 nM	86.2%	11.3 nM	103%	> 9950 nM	–	–
Y-Aib-EGT-αMeF(2F)-TSD-4Pal-SI-αMeL-LD-Orn-K((2-[2-(2-Amino-ethoxy)-ethoxy]-acetyl)2-(γ-Glu)-(4-(4-tert-butylphenyl)butanoyl))AQ-Aib-EFI-(D-Glu)-K((2-[2-(2-Amino-ethoxy)-ethoxy]-acetyl)2-(γ-Glu)-(4-(4-tert-butylphenyl)butanoyl))…-NH2 (peptide)	0.0417 nM	91.9%	12 nM	104%	> 9950 nM	–	–
Y-Aib-EGT-αMeF(2F)-TSD-4Pal-SI-αMeL-LD-Orn-K((εK)-(εK)-(γ-Glu)-CO-(CH2)12-CO2H)AQ-Aib-EFI-(D-Glu)-αMeY-LIEGGK((εK)-(εK)-(γ-Glu)-CO-(CH2)12-CO2H)-NH2 (peptide)	0.939 nM	79.3%	18 nM	109%	> 9950 nM	–	–
Y-Aib-EGT-αMeF(2F)-TSD-4Pal-SI-αMeL-LD-Orn-K((2-[2-(2-Amino-ethoxy)-ethoxy]-acetyl)2-(γ-Glu)-CO-(CH2)12-CO2H)AQ-Aib-EFI-(D-Glu)-αMeY-LIEGGK((2-[2-(2-Amino-ethoxy)-ethoxy]-acetyl)2-(γ-Glu)-CO-(CH2)12-CO2H)SSG-Orn-PPP-Orn-NH2 (peptide)	1.25 nM	96.5%	34.6 nM	102%	> 9950 nM	–	–
Y-Aib-EGT-αMeF(2F)-TSD-4Pal-SI-αMeL-LD-Orn-K((2-[2-(2-Amino-ethoxy)-ethoxy]-acetyl)2-(γ-Glu)-CO-(CH2)12-CO2H)AQ-Aib-EFI-(D-Glu)-αMeY-LIEGGK((2-[2-(2-Amino-ethoxy)-ethoxy]-acetyl)2-(γ-Glu)-CO-(CH2)12-CO2H)SSG-Orn-PPPS-NH2 (peptide)	1.15 nM	94.1%	40.8 nM	98.2%	> 9950 nM	–	–
Y-Aib-EGT-αMeF(2F)-TSD-4Pal-SI-αMeL-LD-Orn-IAQ-Aib-K((2-[2-(2-Amino-ethoxy)-ethoxy]-acetyl)2-CO-(CH2)12-CO2H)FIK((2-[2-(2-Amino-ethoxy)-ethoxy]-acetyl)2-CO-(CH2)12-CO2H)-αMeY-…-NH2 (peptide)	0.866 nM	86.2%	13.1 nM	105%	> 9950 nM	–	–
Y-Aib-EGT-αMeF(2F)-TSD-4Pal-SI-αMeL-LD-Orn-K((2-[2-(2-Amino-ethoxy)-ethoxy]-acetyl)2-(γ-Glu)-CO-(CH2)12-CO2H)AQ-Aib-EFIK((2-[2-(2-Amino-ethoxy)-ethoxy]-acetyl)2-(γ-Glu)-CO-(CH2)12-CO2H)-αMeY-…-NH2 (peptide)	1.37 nM	89%	19.1 nM	106%	> 9950 nM	–	–
Y-Aib-EGT-αMeF(2F)-TSD-4Pal-SI-αMeL-LD-Orn-K((2-[2-(2-Amino-ethoxy)-ethoxy]-acetyl)2-(γ-Glu)-CO-(CH2)12-CO2H)AQ-Aib-EFI-(D-Glu)-αMeY-LIEGGK((2-[2-(2-Amino-ethoxy)-ethoxy]-acetyl)2-(γ-Glu)-CO-(CH2)12-CO2H)-NH2 (peptide)	2.46 nM	81.2%	119 nM	87.8%	> 9950 nM	–	–
Y-Aib-EGT-αMeF(2F)-TSD-4Pal-αMeS-I-αMeL-LD-Orn-K((2-[2-(2-Amino-ethoxy)-ethoxy]-acetyl)2-(γ-Glu)-CO-(CH2)12-CO2H)AQ-Aib-EFIK((2-[2-(2-Amino-ethoxy)-ethoxy]-acetyl)2-(γ-Glu)-CO-(CH2)12-CO2H)-αMeY-…-NH2 (peptide)	2.03 nM	80.4%	17.9 nM	108%	> 9950 nM	–	–
Y-Aib-EGT-αMeF(2F)-TSD-4Pal-SI-αMeL-LD-Orn-K((2-[2-(2-Amino-ethoxy)-ethoxy]-acetyl)2-(γ-Glu)-CO-(CH2)12-CO2H)AQ-Aib-EFI-(D-Glu)-αMeY-LIEGGK((2-[2-(2-Amino-ethoxy)-ethoxy]-acetyl)2-(γ-Glu)-CO-(CH2)12-CO2H)SSG-NH2 (peptide)	1.22 nM	75.5%	66.6 nM	97.3%	> 9950 nM	–	–
Y-Aib-EGT-αMeF(2F)-TSD-4Pal-SI-αMeL-LD-Orn-K((εK)-(γ-Glu)-CO-(CH2)12-CO2H)AQ-Aib-EFI-(D-Glu)-αMeY-LIEGGK((εK)-(γ-Glu)-CO-(CH2)12-CO2H)-NH2 (peptide)	2.19 nM	85.6%	24.3 nM	107%	> 9950 nM	–	–
B1	–	–	–	–	–	2.99 nM	0.145 nM
B2	–	–	–	–	–	1.33 nM	0.0375 nM
B3	–	–	–	–	–	0.246 nM	0.0249 nM
B4	–	–	–	–	–	0.224 nM	0.023 nM
B5	–	–	–	–	–	0.433 nM	0.0528 nM
B6	–	–	–	–	–	6.48 nM	0.378 nM
